In patent US6368828 (US Dept. of Health and Human Services, dated 2002):

Molecular target: the molecule itself
Assay: DSG crosslinking of whole cell lysates; immunoprecipitation and immunoblot with anti-Stat6 serum
Experimental: Effect of Stat6c on endogenous Stat6 dimerization. To elucidate the molecular mechanism of Stat6c's potent transcriptional […], several possibilities were considered. Because endogenous Stat6 tyrosine phosphorylation is only partly diminished by Stat6c, inhibition of IL-4-induced endogenous Stat6 association with IL-4Rα or JAK activation appeared unlikely. […] Therefore, crosslinking studies were performed to investigate whether Stat6c might effect endogenous Stat6 dimerization. Whole cell lysates from IL-4-treated FDC-P2 cells or Stat6 and Stat6c transfectants were incubated with disuccinimidyl glutarate (DSG).

B1: endogenous murine Stat6 (other, UniProt P52633 1-837, looked up)
chain: MSLWGLISKMSPEKLQRLYVDFPQRLRHLLADWLESQPWEFLVGSDAFCYNMASALLSATVQRLQATAGEQGKGNSILPHISTLESIYQRDPLKLVATIRQILQGEKKAVIEEFRHLPGPFHRKQEELKFTTALGRLQHRVRETRLLRESLQQGAKTGQVSLQNLIDPPVNGPGPSEDLATMLQGTVGDLEATQALVLKRIQIWKRQQQLAGNGTPFEESLAGLQERCESLVEIYSQLQQEIGAASGELEPKTRASLISRLDEVLRTLVTSSFLVEKQPPQVLKTQTKFQAGVRFLLGLQFLGTSAKPPMVRADMVTEKQARELSLAQGPGTGVESTGEIMNNTVPLENSIPSNCCSALFKNLLLKKIKRCERKGTESVTEEKCAVLFSTSFTLGPNKLLIQLQALSLPLVVIVHGNQDNNAKATILWDNAFSEMDRVPFVVAERVPWEKMCETLNLKFMAEVGTSRGLLPEHFLFLAQKIFNDNSLSVEAFQHRCVSWSQFNKEILLGRGFTFWQWFDGVLDLTKRCLRSYWSDRLIIGFISKQYVTSLLLNEPDGTFLLRFSDSEIGGITIAHVIRGQDGSSQIENIQPFSAKDLSIRSLGDRIRDLAQLKNLYPKKPKDEAFRSHYKPEQMGKDGRGYVSTTIKMTVERDQPLPTPEPQMPAMVPPYDLGMAPDASMQLSSDMGYPPQSIHSFQSLEESMSVLPSFQEPHLQMPPNMSQITMPFDQPHPQGLLQCQSQEHAVSSPEPMLCSDVTMVEDSCLTQPVGGFPQGTWVSEDMYPPLMPPTEQDLTKLLLENQGEAGGSLGSQPLLQPSPYGQSGISLSHLDLRTNPSW
notes: Endogenous protein in FDC-P2 whole cell lysates; also called endogenous Stat6
binding result: binds
